The source of these data is patent publication US12216128B2, “Methods for guiding therapy decisions in seizure disorders” (Mayo Foundation for Medical Education and Research, priority 2018, dated 2025).

In one series the target is T1, human IL-1R (Homo sapiens, UniProt P14778).
T1 construct: Human embryonic kidney (HEK) cells expressing murine and human IL-1 receptor proteins; host or cells: HEK-Blue IL1R (HEK293-derived reporter cells)
T1 sequence (P14778 18-569): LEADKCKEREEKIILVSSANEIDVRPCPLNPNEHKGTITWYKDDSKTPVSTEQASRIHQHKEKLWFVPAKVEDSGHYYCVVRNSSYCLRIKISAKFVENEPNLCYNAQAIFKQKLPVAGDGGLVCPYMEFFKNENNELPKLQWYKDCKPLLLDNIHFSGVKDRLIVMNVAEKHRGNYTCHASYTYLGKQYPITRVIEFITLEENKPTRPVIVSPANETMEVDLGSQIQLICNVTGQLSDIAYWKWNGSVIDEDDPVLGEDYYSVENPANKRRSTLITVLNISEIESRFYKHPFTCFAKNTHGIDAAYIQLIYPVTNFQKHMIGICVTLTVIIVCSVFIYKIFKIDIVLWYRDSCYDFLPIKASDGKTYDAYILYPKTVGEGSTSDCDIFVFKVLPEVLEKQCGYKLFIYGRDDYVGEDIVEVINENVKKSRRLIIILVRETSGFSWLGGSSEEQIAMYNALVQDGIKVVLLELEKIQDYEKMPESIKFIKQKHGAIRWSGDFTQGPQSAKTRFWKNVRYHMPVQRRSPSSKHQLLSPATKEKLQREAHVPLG
As to the kind of experiment: HEK-Blue IL1R cell-based IL-1R signaling reporter assay (SEAP, Quanti-Blue, absorbance 655 nm). On the procedure: HEK-Blue IL1R cells: Human embryonic kidney (HEK) cells expressing murine and human IL-1 receptor proteins, as well as expressing secreted embryonic alkaline phosphatase under NF-kB/AP1 transcriptional control (HEK-Blue IL1R, InvivoGen), were maintained in DMEM with 10% FBS, 2 mM glutamine, 50 U/mL penicillin, 50 μg/ml streptomycin, 100 μg/ml Normocin, 200 μg/mL hygromicin B, 1 μg/mL puromycin, and 100 μg/ml Zeocin. Heat inactivated human serum tested negative for background alkaline phosphatase activity. In initial experiments, HEK-Blue IL1R cells were treated for 24 hours with 0-100 ng/mL recombinant human IL-1β (Peprotech) in the presence of 0-200 ng/mL anakinra. In subsequent experiments, cells were treated with 32 pg/mL IL-1β for all conditions. After 3 hours, saturating concentrations (10 μg/mL) of anakinra were added to the cells to block further IL-1R signaling, and endpoint supernatants were collected at 24 hours. Supernatants (20-40 μL) were mixed with prewarmed QUANTI-Blue reagent (160 μL, InvivoGen) and incubated at 37° C. in a Spectramax M3 multi-mode microplate reader (Molecular Devices). Absorbance at 655 nm was recorded every 5 minutes for 3 hours via kinetic read. The basal absorbance of untreated HEK-Blue IL-1R cell supernatant was subtracted from all samples to normalize for non-specific signal.
Given that both IL-1β and IL-1RA were elevated in FIRES patient serum, experiments were conducted to determine whether the elevation translated into a change in overall IL-1R signaling activity. To develop a sensitive functional measurement of IL-1R signaling activity, a cell based assay using HEK-Blue IL1R cells was developed and optimized. These cells express human IL-1R and respond to IL-1R signaling-induced NFκB activity by producing secreted embryonic alkaline phosphatase (SEAP), which dose-dependently results in increased absorbance of 655 nm wavelength light upon incubation with Quanti-Blue substrate (FIG. 2A).
To investigate this possibility, the antagonistic activity of FIRES patient CSF-derived IL-1RA was assessed using an in vitro HEK-Blue IL1R cell-based assay. […] Thus, HEK-Blue IL1R cells were treated with 32 pg/mL IL-1β in the presence of either 50% dialyzed FIRES patient CSF containing 65 pM patient IL-1RA or 50% dialyzed CSF derived from NPH patients that was supplemented with recombinant IL-1RA prior to dialysis to reach concentrations of IL-1RA equimolar to that seen in FIRES patient CSF. The percent inhibition of IL-1R-induced SEAP was then compared in cells treated with 50% CSF containing 65 pM FIRES patient IL-1RA vs. 50% CSF containing 65 pM anakinra.

The nature of series [1]: IL-1RA ELISA in FIRES patient serum and CSF before and after initiation of anakinra treatment. Particulars: detects the exogenous IL-1RA. The class given is in vivo, human. On the procedure:
IL-1RA enzyme-linked immunosorbent assay: The human IL-1RA/IL1F3 Quantikine ELISA kit (R&D Systems) was used according to the manufacturer's instructions. Serum and CSF samples were diluted (1:2-1:5000 in assay diluent) and duplicate samples were measured against a standard curve (31.3-2000 pg/mL in duplicate). After chromogen development, absorbance was measured on a Spectramax M3 multi-mode microplate reader (Molecular Devices). Absorbances falling outside the range of the standard curve were reanalyzed at different dilutions.
To determine whether there was a diminished level of endogenous IL-1RA in FIRES patient serum or CSF, IL-1RA levels were measured by enzyme-linked immunosorbent assay (ELISA) in FIRES patient serum and CSF before and after initiation of anakinra treatment, as well as in serum from healthy controls, CSF from normal pressure hydrocephalus patients, and serum and CSF from patients with other seizure disorders. […] IL-1RA was strongly elevated in FIRES CSF compared to normal pressure hydrocephalus controls and patients with ESES or focal epilepsy (FIG. 1C). CSF IL-1β levels, which were only rarely detectable in healthy controls, were also elevated in among FIRES patients (FIG. 1D). […] This finding also was consistent with reports of elevated IL-1RA following seizure activity (Lehtimaki et al., Neuroimmunomodulation 17(1):19-22, 2010).
Background: An ELISA detects its analyte on a solid surface through an enzyme-linked reagent.

The next series relates to children with FIRES. The conditions noted are these: Kenney-Jung et al. 2016; cited from earlier work.

Turning to “anakinra: recombinantly-produced human IL-1RA”, the “suppression of the measured increase in IL-1R activity elicited by serum plus IL-1β” value with human IL-1R (32 pg/mL IL-1β in the presence of 10% serum (HC, FE, FIRES, ESES), all conditions, FIG. 3E) is “at least partially suppressed”. Moreover, the “IL-1R signaling in IL-1β treated HEK cells compared to unsupplemented NPH CSF” value with human IL-1R (32 pg/mL IL-1β, 50% dialyzed NPH CSF supplemented with 65 pM, FIG. 5B) is given as “significantly less IL-1R signaling”. The “inhibition of IL-1R signaling in dialyzed CSF” value with human IL-1R (CSF dialyzed against DMEM/F12, 100 Dalton cut off membrane, FIG. 4D) was “restored anakinra-mediated inhibition”. Moreover, the “blockade of IL-1β-induced IL-1R signaling (SEAP)” value in the series with human IL-1R (HEK-Blue IL1R cells, co-treatment with IL-1β, FIG. 2B) was “competitively blocked”. Moreover, in the series with human IL-1R (media containing 50% control CSF or artificial CSF, compared to complete media, FIGS. 4A-4C), the “inhibition of IL-1R signaling in undialyzed CSF” value was “did not show inhibition of IL-1R signaling”. Further, the “CSF level of IL-1RA following treatment” value in series [1] (FIRES patient CSF) is “further increased”. Besides, in series [1] (FIRES patient serum), the “serum level of IL-1RA following treatment” value is reported as “further increased”. Besides, in the series on children with FIRES, the “clinical response of seizure disorder” value is recorded as “some children with FIRES respond”.
